From PMC7588443 (Nature Communications, 2020)
Where a SMILES comes first, the peptide text is derived from it.

Tests used:
[1] = biological target: T1, BBRF2Δ (Epstein-Barr virus, UniProt P29882); experiment: biochemical; type: binding, human herpesvirus 4 strain M81
T1 construct: The cDNAs for full-length BBRF2 and BBRF2_17–278 were cloned into a modified pET28 vector (pSKB); made in house; host or cells: E. coli Rosetta (DE3)
Experimental: (§1) The biolayer interferometry (BLI) assay was performed using an eight-channel OctetRED biolayer interferometry system (FortéBio).
(§2) All experiments were carried out at 25 °C. Each measurement involved an 120 s baseline (with reaction buffer), followed by a 180 s (with protein or peptide) association phase, and a 180 s dissociation phase (with reaction buffer). Raw data were processed using Octet Data Analysis software 11.0 provided by Fortebio to derive the dissociation constant (KD). The results were presented in a graph using Origin (version 2019, OriginLab).

[2] = Solubility of recombinant BSRF1 constructs; type: physicochemical; conditions: recombinant protein
[3] = SEC-RALS, oligomeric state in solution; type: physicochemical; conditions: Superdex 75 or 200, 20 mM HEPES pH 7.0, 600 mM NaCl, 10% glycerol, 1 mM DTT
Experimental: (§3) The entire experiment was performed in buffer C. The RALS data were analyzed by OMNISEC software.

[4] = system: BSRF1Δ; experiment: SEC analysis, BBRF2Δ mutants with BSRF1Δ; type: binding, human herpesvirus 4 strain M81; conditions: Superdex 75, 25 μM each, overnight at 4 °C, buffer C pH 7.0
Experimental: as §3

[5] = system: BBRF2Δ(F209K); experiment: Biolayer interferometry (BLI) on BBRF2Δ(F209K); type: binding, human herpesvirus 4 strain M81; conditions: compared to wild-type, pH 7.0, 25 °C
Experimental: as §1, §2

[6] = biological target: T2, BBRF2Δ (BBRF2 17-278) (Epstein-Barr virus (human herpesvirus 4 …, UniProt P29882 17-278)); experiment: SEC; conditions: both partners purified
T2 construct: source: E. coli Rosetta (DE3), purified (Ni-NTA, SEC)
T2 sequence: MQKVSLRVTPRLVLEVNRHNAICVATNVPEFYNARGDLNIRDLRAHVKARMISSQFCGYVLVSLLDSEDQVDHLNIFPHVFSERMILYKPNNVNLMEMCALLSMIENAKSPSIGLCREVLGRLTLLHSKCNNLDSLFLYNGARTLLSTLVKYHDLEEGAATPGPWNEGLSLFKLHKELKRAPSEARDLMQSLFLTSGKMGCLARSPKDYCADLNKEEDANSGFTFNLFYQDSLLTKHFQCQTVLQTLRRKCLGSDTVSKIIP

[7] = biological target: T3, His6-tagged BBRF2Δ (Epstein-Barr virus (human herpesvirus 4 …, UniProt P29882 17-278)); experiment: BLI; conditions: both partners purified
T3 construct: also called His-tagged BBRF2Δ; source: E. coli Rosetta (DE3), purified; not shown: His6, N-terminal, kept
T3 sequence: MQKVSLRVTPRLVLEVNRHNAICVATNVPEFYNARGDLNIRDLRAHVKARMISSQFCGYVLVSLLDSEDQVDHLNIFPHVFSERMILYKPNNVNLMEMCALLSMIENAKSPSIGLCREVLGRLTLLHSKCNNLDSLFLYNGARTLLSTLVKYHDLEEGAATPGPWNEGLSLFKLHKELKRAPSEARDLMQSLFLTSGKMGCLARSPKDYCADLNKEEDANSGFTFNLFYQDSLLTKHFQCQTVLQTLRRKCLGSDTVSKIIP

[8] = biological target: T4, His6-tagged BBRF2Δ (Epstein-Barr virus (human herpesvirus 4 strain M81)), P29882; experiment: BLI
T4 chain: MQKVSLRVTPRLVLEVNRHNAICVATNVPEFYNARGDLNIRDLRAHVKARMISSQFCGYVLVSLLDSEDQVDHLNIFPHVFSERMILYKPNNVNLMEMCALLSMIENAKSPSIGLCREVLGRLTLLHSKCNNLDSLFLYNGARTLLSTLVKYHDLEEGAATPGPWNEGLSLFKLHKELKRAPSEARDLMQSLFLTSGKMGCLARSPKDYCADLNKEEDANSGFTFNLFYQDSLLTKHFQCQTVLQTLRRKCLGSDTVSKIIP

[9] = 6 μM protein, 3 mM liposomes (Golgi, ER, plasma membrane mixes), 60 min, room temperature; alone or complexed with full-length BBRF2
[10] = biological target: the molecule itself; experiment: SEC-RALS; Superdex 75 or Superdex 200 Increase 10/300 GL; 25 μM of each purified protein mixed and incubated overnight at 4 °C; buffer C (20 mM HEPES pH 7.0, 600 mM NaCl, 10% glycerol, 1 mM DTT)
[11] = biological target: T2, BBRF2Δ (BBRF2 17-278); experiment: as above; conditions: both partners purified

CC[C@H](C)[C@H](NC(=O)[C@H](CO)NC(=O)[C@H](CC(N)=O)NC(=O)[C@H](C)NC(=O)[C@H](CCC(N)=O)NC(=O)[C@@H](NC(=O)[C@H](C)NC(=O)[C@H](CC(C)C)NC(=O)[C@H](CC(C)C)NC(=O)[C@H](Cc1ccc(O)cc1)NC(=O)[C@@H](NC(=O)[C@H](CCC(N)=O)NC(=O)[C@H](CCCNC(=N)N)NC(=O)[C@H](CC(C)C)NC(=O)[C@H](CO)NC(=O)CNC(=O)[C@H](CCSC)NC(=O)[C@@H](NC(=O)[C@H](CCC(N)=O)NC(=O)[C@H](CCC(=O)O)NC(=O)[C@H](CC(N)=O)NC(=O)[C@H](CCCNC(=N)N)NC(=O)[C@H](CC(C)C)NC(=O)[C@H](CC(C)C)NC(=O)[C@H](CC(=O)O)NC(=O)CNC(=O)[C@@H](NC(=O)[C@H](CCC(N)=O)NC(=O)[C@@H](NC(=O)CNC(=O)[C@@H]1CCCN1C(=O)[C@@H]1CCCN1C(=O)[C@H](CC(C)C)NC(=O)CNC(=O)[C@H](CC(C)C)NC(=O)[C@@H](N)CC(=O)O)C(C)C)C(C)C)[C@@H](C)O)C(C)C)C(C)C)C(=O)N[C@H](C(=O)N[C@@H](CC(=O)O)C(=O)O)[C@@H](C)O [P1] (H-DLGLPPGVQVGDLLRNEQTMGSLRQVYLLAVQANSITD-OH)
Kd [1]: 7.43 µM

B1: BSRF1: Full-length BSRF1 (residues 1–218), EBV tegument protein (protein)
chain: MAFYLPDWSCCGLWLFGRPRNRYSQLPEEPETFECPDRWRAEIDLGLPPGVQVGDLLRNEQTMGSLRQVYLLAVQANSITDHLKRFDAVRVPESCRGVVEAQVAKLEAVRSVIWNTMISLAVSGIEMDENGLKALLDKQAGDSLALMEMEKVATALKMDETGAWAQEISAVVSSVTAPSASAPFINSAFEPEVPTPVLAPPPVVRQPEHSGPTELALT
modifications: left off: Flag, end not stated, kept
notes: Full-length BSRF1 (residues 1–218), EBV tegument protein
solubility [2]: insoluble

B2: BBRF2Δ: N-terminally truncated version with deletion of residues 1−16 (protein)
chain: MQKVSLRVTPRLVLEVNRHNAICVATNVPEFYNARGDLNIRDLRAHVKARMISSQFCGYVLVSLLDSEDQVDHLNIFPHVFSERMILYKPNNVNLMEMCALLSMIENAKSPSIGLCREVLGRLTLLHSKCNNLDSLFLYNGARTLLSTLVKYHDLEEGAATPGPWNEGLSLFKLHKELKRAPSEARDLMQSLFLTSGKMGCLARSPKDYCADLNKEEDANSGFTFNLFYQDSLLTKHFQCQTVLQTLRRKCLGSDTVSKIIP
oligomeric state in solution [3]: monomeric both in solution and in the asymmetric unit of the crystal

B3: BBRF2Δ(M205K): BBRF2Δ with Met205 mutated to lysine (protein)
chain: MQKVSLRVTPRLVLEVNRHNAICVATNVPEFYNARGDLNIRDLRAHVKARMISSQFCGYVLVSLLDSEDQVDHLNIFPHVFSERMILYKPNNVNLMEMCALLSMIENAKSPSIGLCREVLGRLTLLHSKCNNLDSLFLYNGARTLLSTLVKYHDLEEGAATPGPWNEGLSLFKLHKELKRAPSEARDLKQSLFLTSGKMGCLARSPKDYCADLNKEEDANSGFTFNLFYQDSLLTKHFQCQTVLQTLRRKCLGSDTVSKIIP
complex formation with BSRF1Δ [4]: did not form a complex with BSRF1Δ

B4: BBRF2Δ(F209K): BBRF2Δ with Phe209 mutated to lysine (protein)
chain: MQKVSLRVTPRLVLEVNRHNAICVATNVPEFYNARGDLNIRDLRAHVKARMISSQFCGYVLVSLLDSEDQVDHLNIFPHVFSERMILYKPNNVNLMEMCALLSMIENAKSPSIGLCREVLGRLTLLHSKCNNLDSLFLYNGARTLLSTLVKYHDLEEGAATPGPWNEGLSLFKLHKELKRAPSEARDLMQSLKLTSGKMGCLARSPKDYCADLNKEEDANSGFTFNLFYQDSLLTKHFQCQTVLQTLRRKCLGSDTVSKIIP
binding affinity of BBRF2Δ(F209K) with BSRF1Δ, in words [5]: moderately reduced binding affinity
complex formation with BSRF1Δ [4]: maintained the binding for BSRF1Δ

B5: BBRF2: EBV tegument protein, full-length (protein)
chain: MASGKHHQPGGTRSLTMQKVSLRVTPRLVLEVNRHNAICVATNVPEFYNARGDLNIRDLRAHVKARMISSQFCGYVLVSLLDSEDQVDHLNIFPHVFSERMILYKPNNVNLMEMCALLSMIENAKSPSIGLCREVLGRLTLLHSKCNNLDSLFLYNGARTLLSTLVKYHDLEEGAATPGPWNEGLSLFKLHKELKRAPSEARDLMQSLFLTSGKMGCLARSPKDYCADLNKEEDANSGFTFNLFYQDSLLTKHFQCQTVLQTLRRKCLGSDTVSKIIP
oligomeric state in solution [3]: monomer in solution

B6: BSRF1Δ with Cys95 mutated to serine (domain or fragment)
chain: ECPDRWRAEIDLGLPPGVQVGDLLRNEQTMGSLRQVYLLAVQANSITDHLKRFDAVRVPESSRGVVEAQVAKLEAVRSVIWNTMISLAVSGIEMDENGLKALLDKQAGDSLALMEMEKVATALKMD
notes: also called BSRF1Δ(C95S); source: E. coli, purified
binding result [6]: binds

B7: BSRF1Δ(N59K) (domain or fragment)
chain: ECPDRWRAEIDLGLPPGVQVGDLLRKEQTMGSLRQVYLLAVQANSITDHLKRFDAVRVPESCRGVVEAQVAKLEAVRSVIWNTMISLAVSGIEMDENGLKALLDKQAGDSLALMEMEKVATALKMD
notes: source: E. coli, purified
binding result [7]: binds
binding result [6]: binds

B8: BSRF1Δ(M63D) (domain or fragment)
chain: ECPDRWRAEIDLGLPPGVQVGDLLRNEQTDGSLRQVYLLAVQANSITDHLKRFDAVRVPESCRGVVEAQVAKLEAVRSVIWNTMISLAVSGIEMDENGLKALLDKQAGDSLALMEMEKVATALKMD
notes: source: E. coli, purified
binding result [7]: binds
binding result [6]: binds

DLGLPPGVQVGDLLRNEQTMGSLRQVYLLAVQANSITD (modifications not checked) [BSRF1-derived peptide 1]
Kd [8]: 7.4 µM

B9: BSRF1_(20-218) (domain or fragment)
chain: RNRYSQLPEEPETFECPDRWRAEIDLGLPPGVQVGDLLRNEQTMGSLRQVYLLAVQANSITDHLKRFDAVRVPESCRGVVEAQVAKLEAVRSVIWNTMISLAVSGIEMDENGLKALLDKQAGDSLALMEMEKVATALKMDETGAWAQEISAVVSSVTAPSASAPFINSAFEPEVPTPVLAPPPVVRQPEHSGPTELALT
notes: also called near-full-length BSRF1; source: E. coli, purified (as the BBRF2 constructs, 300 mM NaCl, no glycerol)
membrane binding [9]: did not exhibit a strong tendency for membrane binding
oligomeric state in solution [3]: dimerized in solution
stoichiometry N [10]: 2
stoichiometry N [11]: 1
